Data as given in the supplement of paper PMC9732359.
± gives the uncertainty stated by the source.

Test: protein stability index of a GFP-peptide fusion (yeast GPS) (PSI 1-4); higher = more stable; sorted into four equal gates, so the index is relative within each strain
Conditions: doa10∆
Procedure, shortened: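 For each peptide, the protein stability index sums the read frequency in every gate after multiplying it by the gate number. Read frequencies came from plasmids that were PCR-amplified from each gate and Illumina-sequenced, with reads assigned to strains by barcodes. The gates were four equal bins of GFP/Cherry fluorescence ratio applied to mid-log yeast in leucine-free medium carrying a pooled library of tiled 17-residue yeast protein peptides fused downstream of GFP on a Cherry-expressing plasmid.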
RESLIMLLEEQLEYKRG [MED7] showed a protein stability index of 2.51 ± 0.08.
For RFMKGRRSKQLINLAKT [RPC82], the protein stability index was 2.56 ± 0.1.
In the case of RFTKFSDTLKEFKIEQN [YDL116W/NUP84], the protein stability index is reported as 1.74 ± 0.076.
In the case of RGFSKDLKSKADKLADM [RRP6], the protein stability index is reported as 3.34 ± 0.28.
Sequence RGNTKIHSMNENPTPEK [SIR3] has a protein stability index of 3.11 ± 0.085.
Work on RGTIPLLERYIGNLITR [PRP8] yielded a protein stability index of 1.52 ± 0.055.
Sequence RGYTCQFVDMVLPNTAL [FAS1] has a protein stability index of 1.75 ± 0.075.
For RHKNKHIQGFPTLGERL [DSN1], the protein stability index was 3.41 ± 0.091.
In the case of RHMVDDKIHARARGPMQ [RPB2], the protein stability index is reported as 3.38 ± 0.17.
RIIGLSATLPNYEDVGR [BRR2] showed a protein stability index of 2.23 ± 0.045.
In the case of RILAMCVKNHGQSSSIQ [YCS4], the protein stability index is reported as 2.11 ± 0.055.
RILKNKAEYLKNCPITQ [RPC40] gave a protein stability index of 2.96 ± 0.052.
Work on RIPFSERKLKFSNRFLP [FAS1] yielded a protein stability index of 1.28 ± 0.084.
For RISEKSVRKFLEIALFK [RPO31], the protein stability index was 1.93 ± 0.14.
Work on RITNSFYSTNSQYFKFK [RPN9] yielded a protein stability index of 2.5 ± 0.1.
RKALPKEPKKLLPNSKN [DSN1] gave a protein stability index of 2.55 ± 0.063.
RKAYFTAPSSERRVLLS [RPL26B] showed a protein stability index of 1.45 ± 0.041.
Sequence RKAYFTAPSSQRRVLLS [RPL26A] has a protein stability index of 2.44 ± 0.055.
RKCCNHPYLFEGAEPGP [ISW2] showed a protein stability index of 3.06 ± 0.064.
Sequence RKFKSRRCDDMLYYIQN [POP4] has a protein stability index of 2.74 ± 0.069.
RKGGPATAEKLPNIYPS [RPT2] gave a protein stability index of 2.89 ± 0.13.
Sequence RKHRNAQFAGRASIEYY [DIS3] has a protein stability index of 2.99 ± 0.13.
RKLEISSRFKHRQEIFK [GAL11] gave a protein stability index of 2.76 ± 0.064.
Work on RKLINYTKKHLSSHSST [RPN4] yielded a protein stability index of 1.34 ± 0.063.
For RKLMEMENILQRCKSNA [YIL149C/MLP2], the protein stability index was 2.04 ± 0.072.
In the case of RKQIQLLKKIIFEKELM [SRB4], the protein stability index is reported as 1.93 ± 0.051.
With RKRKCGHTNQLRPKKKL [RPL40A] the protein stability index was 2.84 ± 0.035.
Work on RKVRTKKWKKYWQYKAG [SWP82] yielded a protein stability index of 2.47 ± 0.089.
RKVSGPRALQPSQFGML [RET1] gave a protein stability index of 2.36 ± 0.089.
RLAPLIKEENDMENMAD [ARP7] showed a protein stability index of 3.75 ± 0.23.
In the case of RLASEPGIISITSLQDS [YMR129W/POM152], the protein stability index is reported as 2.94 ± 0.1.
Work on RLEFDQDRDRFFLRDTL [SNF5] yielded a protein stability index of 3.07 ± 0.061.
Work on RLELAGQLISLLFEDLF [RET1] yielded a protein stability index of 2.65 ± 0.092.
RLFIKPGQKMSLFSHRK [BRN1] gave a protein stability index of 2.74 ± 0.14.
RLGGDDLRIRIKLDIVV [SNF5] gave a protein stability index of 1.35 ± 0.16.
With RLHYYPKDPSNVETYEQ [BRR2] the protein stability index was 3.02 ± 0.11.
With RLIDSMKQYSYLMDSKN [RRI1] the protein stability index was 2.62 ± 0.21.
Sequence RLNTVTRVHQLMLEDAV [MCD1] has a protein stability index of 3.32 ± 0.21.
Work on RLQAANSMEYTGKITKM [CDC53] yielded a protein stability index of 2.99 ± 0.12.
With RLQGIKLLDNIQEYQLC [COR1] the protein stability index was 2.46 ± 0.13.
RLRQFNLQPISTPENVP [SMC4] showed a protein stability index of 1.69 ± 0.081.
With RLTAKRLIEHDPVEGNL [SRP14] the protein stability index was 2 ± 0.066.
Sequence RMLEEAIDHLKAELEKQ [YIL149C/MLP2] has a protein stability index of 3.25 ± 0.056.
Work on RMLSFEDISKATHLPKD [RPN9] yielded a protein stability index of 2.95 ± 0.091.
RNILHNTVPQVTNFNST [SRB5] showed a protein stability index of 1.95 ± 0.056.
In the case of RNKSAANNDINSLLSNF [YDL088C/ASM4], the protein stability index is reported as 2.94 ± 0.15.
Sequence RNNVANKQPRNESFNRR [YAR002W/NUP60] has a protein stability index of 3.04 ± 0.088.
For RNQILVSITDAPKIHIL [YMR129W/POM152], the protein stability index was 1.43 ± 0.041.
With RNRDIALFQPPNFDWDL [ROX3] the protein stability index was 3.12 ± 0.096.
RNTMMIQCQIDKLYIHF [RGR1] showed a protein stability index of 1.98 ± 0.051.
For RNVLSASLDGTIRLWEC [RPN14], the protein stability index was 2.95 ± 0.068.
RPDLIKEDHPLEFYKDK [SIR3] showed a protein stability index of 3.17 ± 0.07.
In the case of RPFDSFGKLLQAYQFLN [ITC1], the protein stability index is reported as 1.44 ± 0.047.
With RPSFQNNRISNANEISA [SWP82] the protein stability index was 2.22 ± 0.043.
With RQFVSNVRSVIRSSRSR [RPP1] the protein stability index was 3.08 ± 0.063.
In the case of RQLTSLGSKKELGISLE [SNU114], the protein stability index is reported as 3 ± 0.072.
In the case of RQQYYSGVQVGGVGSMG [SNF6], the protein stability index is reported as 2.08 ± 0.068.
Sequence RRADVKTATVKINKKLN [RPL38] has a protein stability index of 1.83 ± 0.058.
RRFKNGFQTGSASKASA [RPL37A] showed a protein stability index of 2.99 ± 0.053.
RRFYKNWYKSKKKAFTK [RPL3] showed a protein stability index of 2.98 ± 0.16.
RRIIQNAQQTFHIDHTK [RPO21] gave a protein stability index of 2.81 ± 0.061.
Work on RRIPKRMRNRALREMRK [POP1] yielded a protein stability index of 3.26 ± 0.11.
With RRLDALVEKVYARFKND [ITC1] the protein stability index was 3.29 ± 0.16.
Work on RRRDFGAPANKRPRRGL [SMD1] yielded a protein stability index of 2.84 ± 0.094.
For RRRDGVFLYFEDNAGVI [RPL23A], the protein stability index was 2.68 ± 0.13.
For RRRLLGPAAAKPMAFSN [MTR3], the protein stability index was 3.06 ± 0.071.
RRTNTPIGRDGKLAKPR [RPB2] gave a protein stability index of 3.08 ± 0.1.
For RRYDRKQSGFGGQTKPV [RPL42A], the protein stability index was 3.08 ± 0.084.
Work on RSEDPAGLGKTNELWAR [YGR119C/NUP57] yielded a protein stability index of 2.82 ± 0.068.
With RSLATAVATPKAEVTQL [COR1] the protein stability index was 2.99 ± 0.1.
In the case of RSQDQENPAFLPGTNNN [SEC65], the protein stability index is reported as 2.79 ± 0.082.
RSRNGGATKIVREHYLR [DIS3] gave a protein stability index of 3.21 ± 0.073.
RSWNEPSKSQTNFKEEI [YML103C/NUP188] gave a protein stability index of 2.9 ± 0.12.
Work on RSWTLTSEMKVLSIPPA [YGL100W/SEH1] yielded a protein stability index of 2.13 ± 0.054.
For RTKSQVIEEDYDDEQNT [IRR1], the protein stability index was 2.4 ± 0.071.
In the case of RTSATREDTPLSQNEST [ISW2], the protein stability index is reported as 2.99 ± 0.072.
RTWYESFCGFLLYYIPS [YJR042W/NUP85] showed a protein stability index of 1.88 ± 0.055.
Sequence RVGVKLKFNSTEYRGTL [SMX3] has a protein stability index of 3.18 ± 0.11.
Work on RVKDIHLRKLLDGELDF [RET1] yielded a protein stability index of 2.87 ± 0.06.
In the case of RVKVHFDQAGKKVSRRN [RPL13A], the protein stability index is reported as 3.46 ± 0.12.
Sequence RVNNPNVSLIKIEGVAT [RPL33A] has a protein stability index of 2.54 ± 0.077.
Work on RYLAVTLQDIGFYQIKK [YMR129W/POM152] yielded a protein stability index of 2.53 ± 0.046.
Work on RYLTLLSNEFTATNSKG [ECM29] yielded a protein stability index of 2.89 ± 0.073.
RYNRAVPDSKIRIYDLG [RPL10] gave a protein stability index of 2.53 ± 0.092.
In the case of RYVNLLGVTYSSPTLAT [PRE4], the protein stability index is reported as 1.12 ± 0.11.
In the case of SAASKKKKNKNKGKKKR [SRP21], the protein stability index is reported as 3.22 ± 0.081.
SAEDQLYAITFRKGLGN [QCR2] gave a protein stability index of 3.06 ± 0.12.
SAEEQLRKIDMLQKKLV [SRB7] gave a protein stability index of 2.64 ± 0.09.
In the case of SAFACKTDEVIILGTNL [BRR2], the protein stability index is reported as 2.86 ± 0.054.
Work on SAGLFGSKPAGGTSLFG [YGL172W/NUP49] yielded a protein stability index of 2.6 ± 0.081.
With SAGRIESNNPSHDASRS [SIR4] the protein stability index was 2.85 ± 0.21.
Work on SAIDEEIEELIDSINGP [SMC3] yielded a protein stability index of 3.29 ± 0.14.
Work on SAIRQVFERFKTKILEV [IRR1] yielded a protein stability index of 1.87 ± 0.045.
In the case of SANERLFGNRPSMMAPL [YML031W/NDC1], the protein stability index is reported as 2.96 ± 0.21.
With SAPIYVDIEYTRGRNII [RET1] the protein stability index was 2.42 ± 0.11.
SAQAETEALLLEHDVEY [DIS3] showed a protein stability index of 3.19 ± 0.087.
With SAQQNLASSFVNGFLNL [RPN1] the protein stability index was 2.73 ± 0.094.
SASLKKIQQHNTILNSS [BRR2] showed a protein stability index of 2.65 ± 0.052.

Same assay, conditions: pdr5∆
With RESLIMLLEEQLEYKRG [MED7] the protein stability index was 2.77 ± 0.071.
